According to the PETadex activity labels (doi:10.1007/s00253-014-5672-0):

Legend:
pNPB = assay: Proxy for plastic degradation [Residual activity]; details: pH 8, part of the chain shown
[1] = Melting temperature [CD spectroscopy]; details: pH 8.5; part of the chain shown

B1: unnamed (protein)
chain: ANPYERGPNPTDALLEARSGPFSVSEENVSRLSASGFGGGTIYYPRENNTYGAVAISPGYTGTEASIAWLGERIASHGFVVITIDTITTLDQPDSRAEQLNAALNHMINRASSTVRSRIDSSRLAVMGHSMGGGGSLRLASQRPDLKAAIPLTPWHLNKNWSSVTVPTLIIGADLDTIAPVATHAKPFYNSLPSSISKAYLELDGATHFAPNIPNKIIGKYSVAWLKRFVDNDTRYTQFLCPGPRDGLFGEVEEYRSTCPFY
With B1 the “Proxy for plastic degradation” value (pNPB; 25 °C) was 100%, the “Proxy for plastic degradation” value (pNPB; 30.7 °C) was 110% and the “Proxy for plastic degradation” value (pNPB; 40.2 °C) was 95%. For the same protein, the “Proxy for plastic degradation” value (pNPB; 50.6 °C) was 115%, the “Proxy for plastic degradation” value (pNPB; 54.9 °C) was 85% and the “Proxy for plastic degradation” value (pNPB; 59.5 °C) was 65%. For the same protein, the “Proxy for plastic degradation” value (pNPB; 65.6 °C) was 2%, the “Proxy for plastic degradation” value (pNPB; 68.6 °C) was 1% and the “Proxy for plastic degradation” value (pNPB; 74.8 °C) was 0%. For the same protein, the “Proxy for plastic degradation” value (pNPB; 78.8 °C) was 0%.

B2: unnamed (protein)
chain: ANPYERGPNPTDALLEARSGPFSVSEENVSRLSASGFGGGTIYYPRENNTYGAVAISPGYTGTEASIAWLGERIASHGFVVITIDTITTLDQPDSRAEQLNAALNHMINRASSTVRSRIDSSRLAVMGHSMGGGGSLRLASQRPDLKAAIPLTPWHLNKNWSSVTVPTLIIGADLDTIAPVATHAKPFYNSLPSSISKAYLELDGATHFAPNIPNKIIGKYSVAWLKRFVDNDTRYTQFLCPGPRDGLFGEVEEYRSTCPF
Protein B2 has a Melting temperature [1] of 70 °C.
